Values of other authors in article PMC7246992.
Read-outs that look alike come from different tables or passages of the source.

Tests used:
[1] = molecular target: linear ubiquitin (Homo sapiens) (UniProt P0CG48)
[2] = molecular target: linear ubiquitin (Homo sapiens) (UniProt P0CG48); remark: listed apart in the source

Chain of A20 ZF7 (P21580 756-790): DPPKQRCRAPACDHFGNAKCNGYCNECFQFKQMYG
Chain of optineurin UBAN (Q96CV9 416-510): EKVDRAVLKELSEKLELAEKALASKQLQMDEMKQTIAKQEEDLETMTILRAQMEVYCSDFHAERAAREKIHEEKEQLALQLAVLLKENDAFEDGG

Substance	Kd [1]	Kd [2]
A20 ZF7 (from UniProt P21580)	9 µM	–
optineurin UBAN (from UniProt Q96CV9)	–	1 µM
